# Measured values as given in IntAct's records for PubMed 24805197.
# B1: Sarcoplasmic reticulum histidine-rich calcium-binding protein (Homo sapiens), P23327 (parent)
# chain: MGHHRPWLHASVLWAGVASLLLPPAMTQQLRGDGLGFRNRNNSTGVAGLSEEASAELRHHLHSPRDHPDENKDVSTENGHHFWSHPDREKEDEDVSKEYGHLLPGHRSQDHKVGDEGVSGEEVFAEHGGQARGHRGHGSEDTEDSAEHRHHLPSHRSHSHQDEDEDEVVSSEHHHHILRHGHRGHDGEDDEGEEEEEEEEEEEEASTEYGHQAHRHRGHGSEEDEDVSDGHHHHGPSHRHQGHEEDDDDDDDDDDDDDDDDVSIEYRHQAHRHQGHGIEEDEDVSDGHHHRDPSHRHRSHEEDDNDDDDVSTEYGHQAHRHQDHRKEEVEAVSGEHHHHVPDHRHQGHRDEEEDEDVSTERWHQGPQHVHHGLVDEEEEEEEITVQFGHYVASHQPRGHKSDEEDFQDEYKTEVPHHHHHRVPREEDEEVSAELGHQAPSHRQSHQDEETGHGQRGSIKEMSHHPPGHTVVKDRSHLRKDDSEEEKEKEEDPGSHEEDDESSEQGEKGTHHGSRDQEDEEDEEEGHGLSLNQEEEEEEDKEEEEEEEDEERREERAEVGAPLSPDHSEEEEEEEEGLEEDEPRFTIIPNPLDRREEAGGASSEEESGEDTGPQDAQEYGNYQPGSLCGYCSFCNRCTECESCHCDEENMGEHCDQCQHCQFCYLCPLVCETVCAPGSYVDYFSSSLYQALADMLETPEP
# Variants of: B1
# Conditions: with ryr2_mouse Ryr2, E9Q401
# Sequence of ryr2_mouse Ryr2, E9Q401 (E9Q401 whole entry): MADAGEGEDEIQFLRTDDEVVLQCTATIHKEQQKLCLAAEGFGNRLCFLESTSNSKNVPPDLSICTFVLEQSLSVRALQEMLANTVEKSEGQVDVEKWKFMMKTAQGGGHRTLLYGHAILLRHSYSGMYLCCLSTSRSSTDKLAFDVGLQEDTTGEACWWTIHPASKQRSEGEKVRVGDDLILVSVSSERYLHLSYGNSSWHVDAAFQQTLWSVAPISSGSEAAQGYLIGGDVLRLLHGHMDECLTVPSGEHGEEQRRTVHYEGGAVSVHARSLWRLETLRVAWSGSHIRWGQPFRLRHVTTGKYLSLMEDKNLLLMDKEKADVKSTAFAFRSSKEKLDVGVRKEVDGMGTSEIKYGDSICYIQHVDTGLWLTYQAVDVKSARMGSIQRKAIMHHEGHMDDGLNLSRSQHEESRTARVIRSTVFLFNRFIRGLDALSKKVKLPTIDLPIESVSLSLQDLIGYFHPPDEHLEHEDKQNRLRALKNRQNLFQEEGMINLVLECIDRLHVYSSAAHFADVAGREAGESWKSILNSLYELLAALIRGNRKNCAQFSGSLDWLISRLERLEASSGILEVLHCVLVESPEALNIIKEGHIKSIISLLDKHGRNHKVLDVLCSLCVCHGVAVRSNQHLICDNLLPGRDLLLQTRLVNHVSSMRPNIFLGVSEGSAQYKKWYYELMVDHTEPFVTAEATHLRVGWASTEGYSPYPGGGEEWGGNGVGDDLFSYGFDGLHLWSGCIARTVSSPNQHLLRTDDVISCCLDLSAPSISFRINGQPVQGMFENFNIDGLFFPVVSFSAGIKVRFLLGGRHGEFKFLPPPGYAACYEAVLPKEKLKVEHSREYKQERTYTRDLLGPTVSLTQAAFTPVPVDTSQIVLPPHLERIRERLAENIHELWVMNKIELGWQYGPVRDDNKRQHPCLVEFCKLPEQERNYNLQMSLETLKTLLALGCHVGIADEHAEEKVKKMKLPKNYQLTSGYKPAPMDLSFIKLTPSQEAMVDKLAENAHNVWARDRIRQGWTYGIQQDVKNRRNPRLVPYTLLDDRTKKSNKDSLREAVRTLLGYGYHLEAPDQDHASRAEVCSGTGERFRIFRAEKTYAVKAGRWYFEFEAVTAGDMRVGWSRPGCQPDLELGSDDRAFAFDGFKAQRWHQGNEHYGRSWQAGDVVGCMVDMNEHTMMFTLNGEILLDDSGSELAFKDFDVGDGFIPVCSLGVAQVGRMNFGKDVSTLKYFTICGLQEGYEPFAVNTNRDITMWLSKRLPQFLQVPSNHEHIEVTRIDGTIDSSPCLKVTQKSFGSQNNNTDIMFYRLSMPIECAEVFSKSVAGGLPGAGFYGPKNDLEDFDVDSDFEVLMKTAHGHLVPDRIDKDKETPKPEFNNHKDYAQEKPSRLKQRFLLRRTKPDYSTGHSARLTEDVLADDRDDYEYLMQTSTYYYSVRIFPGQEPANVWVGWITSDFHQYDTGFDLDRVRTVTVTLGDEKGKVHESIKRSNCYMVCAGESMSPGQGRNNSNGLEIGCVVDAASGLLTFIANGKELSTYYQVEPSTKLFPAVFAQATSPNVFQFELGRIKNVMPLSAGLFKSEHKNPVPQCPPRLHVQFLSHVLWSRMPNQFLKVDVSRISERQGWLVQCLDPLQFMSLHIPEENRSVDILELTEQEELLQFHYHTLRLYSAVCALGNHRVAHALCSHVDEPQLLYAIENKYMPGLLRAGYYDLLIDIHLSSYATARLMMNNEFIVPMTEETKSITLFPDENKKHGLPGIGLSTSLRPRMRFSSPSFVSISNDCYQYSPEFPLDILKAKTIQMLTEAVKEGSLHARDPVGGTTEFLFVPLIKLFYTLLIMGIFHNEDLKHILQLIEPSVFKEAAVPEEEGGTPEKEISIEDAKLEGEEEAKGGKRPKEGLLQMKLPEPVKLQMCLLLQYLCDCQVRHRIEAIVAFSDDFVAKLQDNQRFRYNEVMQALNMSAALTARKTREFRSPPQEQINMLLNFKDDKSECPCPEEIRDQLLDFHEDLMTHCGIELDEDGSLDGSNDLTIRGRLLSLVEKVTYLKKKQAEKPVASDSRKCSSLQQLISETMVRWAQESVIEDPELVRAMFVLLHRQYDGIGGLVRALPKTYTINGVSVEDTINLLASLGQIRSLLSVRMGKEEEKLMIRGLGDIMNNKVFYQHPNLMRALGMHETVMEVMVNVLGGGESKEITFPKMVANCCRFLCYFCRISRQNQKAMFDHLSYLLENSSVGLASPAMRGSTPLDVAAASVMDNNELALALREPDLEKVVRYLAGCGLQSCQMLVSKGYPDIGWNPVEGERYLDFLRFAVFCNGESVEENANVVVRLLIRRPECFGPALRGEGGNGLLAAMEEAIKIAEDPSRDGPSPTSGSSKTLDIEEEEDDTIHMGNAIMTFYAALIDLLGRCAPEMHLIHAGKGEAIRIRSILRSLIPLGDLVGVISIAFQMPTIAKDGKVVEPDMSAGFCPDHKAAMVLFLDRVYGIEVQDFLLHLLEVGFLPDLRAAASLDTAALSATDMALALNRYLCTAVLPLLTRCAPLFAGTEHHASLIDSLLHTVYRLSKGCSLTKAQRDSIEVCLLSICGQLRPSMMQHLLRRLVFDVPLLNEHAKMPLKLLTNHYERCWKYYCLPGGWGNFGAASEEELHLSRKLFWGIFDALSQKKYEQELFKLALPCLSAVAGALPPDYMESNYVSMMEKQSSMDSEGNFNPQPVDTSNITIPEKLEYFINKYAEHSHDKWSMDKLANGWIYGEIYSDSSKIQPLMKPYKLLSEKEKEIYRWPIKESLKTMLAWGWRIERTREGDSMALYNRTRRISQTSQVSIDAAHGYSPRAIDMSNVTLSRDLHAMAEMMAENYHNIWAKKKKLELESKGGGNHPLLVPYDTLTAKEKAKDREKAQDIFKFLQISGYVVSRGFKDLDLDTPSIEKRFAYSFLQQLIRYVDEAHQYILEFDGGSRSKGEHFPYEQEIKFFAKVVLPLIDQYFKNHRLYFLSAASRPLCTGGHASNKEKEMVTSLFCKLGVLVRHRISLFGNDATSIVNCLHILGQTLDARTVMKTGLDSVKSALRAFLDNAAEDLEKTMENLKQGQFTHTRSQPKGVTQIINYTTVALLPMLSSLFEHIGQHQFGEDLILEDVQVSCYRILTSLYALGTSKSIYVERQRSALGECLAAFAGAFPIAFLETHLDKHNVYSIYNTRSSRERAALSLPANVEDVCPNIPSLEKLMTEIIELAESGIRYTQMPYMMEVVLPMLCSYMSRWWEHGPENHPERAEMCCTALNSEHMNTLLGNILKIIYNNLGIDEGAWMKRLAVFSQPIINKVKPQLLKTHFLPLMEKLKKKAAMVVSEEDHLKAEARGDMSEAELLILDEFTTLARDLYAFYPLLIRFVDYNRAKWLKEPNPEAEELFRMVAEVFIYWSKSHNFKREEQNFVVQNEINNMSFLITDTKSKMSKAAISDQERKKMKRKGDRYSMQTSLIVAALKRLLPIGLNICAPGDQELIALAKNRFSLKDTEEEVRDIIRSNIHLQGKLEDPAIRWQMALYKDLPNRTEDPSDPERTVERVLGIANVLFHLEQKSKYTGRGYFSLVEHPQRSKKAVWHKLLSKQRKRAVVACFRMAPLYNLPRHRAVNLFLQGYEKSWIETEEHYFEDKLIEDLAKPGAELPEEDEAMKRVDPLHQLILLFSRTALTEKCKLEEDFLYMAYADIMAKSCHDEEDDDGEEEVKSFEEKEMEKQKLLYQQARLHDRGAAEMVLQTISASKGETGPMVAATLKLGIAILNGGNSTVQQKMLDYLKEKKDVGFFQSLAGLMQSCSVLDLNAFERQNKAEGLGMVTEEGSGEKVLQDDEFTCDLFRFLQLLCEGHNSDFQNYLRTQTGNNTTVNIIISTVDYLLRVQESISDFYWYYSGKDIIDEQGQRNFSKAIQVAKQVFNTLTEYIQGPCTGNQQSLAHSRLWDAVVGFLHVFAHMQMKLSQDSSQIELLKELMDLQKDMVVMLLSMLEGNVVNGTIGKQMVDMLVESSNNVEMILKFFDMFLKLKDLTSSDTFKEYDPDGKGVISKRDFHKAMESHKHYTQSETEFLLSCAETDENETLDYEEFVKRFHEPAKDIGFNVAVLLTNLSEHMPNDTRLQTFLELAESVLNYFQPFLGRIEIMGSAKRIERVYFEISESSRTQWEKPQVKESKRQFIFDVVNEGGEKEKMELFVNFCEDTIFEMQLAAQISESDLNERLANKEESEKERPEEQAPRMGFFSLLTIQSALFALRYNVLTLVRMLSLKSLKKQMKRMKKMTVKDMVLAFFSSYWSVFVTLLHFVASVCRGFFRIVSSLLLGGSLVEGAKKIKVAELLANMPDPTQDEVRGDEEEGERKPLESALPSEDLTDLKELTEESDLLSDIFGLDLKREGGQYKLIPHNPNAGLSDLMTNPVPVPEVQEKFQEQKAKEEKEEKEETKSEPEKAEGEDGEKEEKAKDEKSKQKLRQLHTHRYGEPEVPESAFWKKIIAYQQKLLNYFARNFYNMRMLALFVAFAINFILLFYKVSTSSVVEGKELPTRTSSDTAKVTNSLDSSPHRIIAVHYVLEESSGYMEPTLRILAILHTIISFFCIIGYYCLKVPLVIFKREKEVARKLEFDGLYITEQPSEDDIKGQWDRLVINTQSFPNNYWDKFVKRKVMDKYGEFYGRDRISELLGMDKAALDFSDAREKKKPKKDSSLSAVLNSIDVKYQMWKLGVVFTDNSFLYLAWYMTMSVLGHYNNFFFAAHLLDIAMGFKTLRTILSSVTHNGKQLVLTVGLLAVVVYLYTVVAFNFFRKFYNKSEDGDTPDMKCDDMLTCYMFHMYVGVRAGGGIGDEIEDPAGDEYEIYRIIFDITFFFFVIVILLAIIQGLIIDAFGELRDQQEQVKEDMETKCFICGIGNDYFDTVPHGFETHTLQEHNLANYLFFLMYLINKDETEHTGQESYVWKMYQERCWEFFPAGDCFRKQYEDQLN
row,effect of a mutation on the interaction,Variant
1,decreasing interaction strength,S96A
